Measurements taken from publication PMC10303457 (Viruses, 2023).

Molecular target: Mouse IMPα1 residues 70–529 (lacking the IMPβ binding domain) (mouse, UniProt P52293 70-529)
Assay: crystal structure
Conditions: both partners purified

SGKRKKIRTIAAYPLGVGKS [HeV M NLS1 peptide (untagged)]
binding result: binds

VRRAGKYYSVEYCKRKID [HeV M NLS2 peptide (untagged)]
binding result: binds
